# According to paper PMC3828348:
# Test system: GST-KSRP
# Test: competition
# Settings: REMSA: 50 mM Tris-HCl pH 7.0, 150 mM NaCl, 0.25 mg/ml tRNA, 0.25 mg/ml BSA, 5% glycerol, 10 min 37°C; competition: 10 mM HEPES pH 7.4, 100 mM KCl, 5 mM MgCl2 …; scale: % HuD binding remaining at equimolar KSRP
substance,measurement,value
GAP-43 ARE RNA (pGAP/B transcript),binding signal,50
